From the supplement of paper PMC9170038

System: K4 kissing-loop RNA reporter
Assay: apparent KD of K4 kissing-loop reporter; higher = weaker reporter binding
Conditions: Eterna round: R107
Description: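 RNA-MaP round R107: designed RNA switches with theophylline, tryptophan, arginine or FMN aptamers are transcribed on-chip within common flanks. They are titrated with a labelled K4 kissing-loop RNA reporter in RNA-MaP buffer (100 mM Tris pH 7.5, 80 mM KCl, 4 mM MgCl2), without ligand or with the indicated ligand. Median apparent KD per design.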

[1] = input ligand: theophylline 20 uM
[2] = input ligand: tryptophan 2.4 mM
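Also: bound reporter read as fluorescence of individual clusters on recovered sequencing chips by microscopy, with normalized cluster intensities fitted with a binding model.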

Sequence	apparent KD of K4 kissing-loop reporter (input ligand: FMN 200 uM) [nM]	apparent KD of K4 kissing-loop reporter (input ligand: arginine 13.2 mM) [nM]	apparent KD of K4 kissing-loop reporter (input ligand: none) [nM]	apparent KD of K4 kissing-loop reporter [1] [nM]	apparent KD of K4 kissing-loop reporter [2] [nM]
UAAGAGGACCACUGCAAGAGUCCUCGAAUACGAGGACCGGUACGGCCGCCACUCGAUAACUUGUAGUGAUGUUGCAAGUAAGAAU [BrourdMod 1 - Jieux - Same State Tryptophan A]	71.2	79.2	79.4	79.2	42.9
UAAGAGGACCACUGCGAGAGUCCUCGAAUACGAGGACCGGUACGGCCGCCACUCGAUAAUUUGCAGUGAUGUUGCAAGUAAGAAU [BrourdMod 6 - Jieux - Same State Tryptophan A]	64.5	114	82.4	104	48.6
UAAGAGUCUCUGCAAUUAGCAGAGACUCAACGAGGACCGGUACGGCCGCCACUCGGGUCCUAGAGUGAUGUUCUAAUAAUAUAAU [AK1.1 SS Tryptophan A]	273	359	548	425	176
UACAUUGCAGUCUUCUUCGUCCUAGAUGACUAGGAUAUCAGGAAACUGAGAAGGAGUCACUGCAGUGAUGUUGCAGCUAGGACGA [KL-SSFMN-A9]	110	118	110	121	105
UACUAUAGUGAUGUUAUAGAUAAACCAGAUACCAGUGUGACAUAACACCCUUGGCAGCUGAUAAGGGAACAUAUGAAAACAUAUG [AstroSSTHeAED5.17]	146	120	132	120	128
UACUUUAAUUUAUAACUAUCUUUAUUUUGUCAGGAUAUCGUAUAGUCGAGAAGGGACUCUAUCAAGUGAUGUUUGAUAUAUCGUU [JR_SSFMNA_Sub025]	140	155	131	147	112
UAGCGUAUCAGAGGAUAUGAUAUGUUAUGCAGUGAUGUUGCAUGAUGUAGCAGAAUUCUGAGUGUAUCAGAAGGCUGAUAUGCUA [FMN B Ex t3]	171	87.8	90.5	78.9	88.6
UAGGAGUGAUGUUCCUAUAGCAGGUAGGAAGGAGCGCCCAUUUGGGCAGGUAGGUCGCCUACCGGCCCUAAGUUAAACCUUAGGC [Rariar]	99.6	111	92.6	109	89
UAGGGCCCUGGAGGAUAUGAGUCUAGUGAUGUUAGGCGGUCCAUGCGCGUGGCGCGUUAUGCCCUUUUAGAAGGCCAGGGCCCUA [#2 Exclusion - FMN B Attempt #17 (HarryS)]	119	72.8	99	99.3	92.4
UAGGGUUGAAAAGGAUAUUUACCCUAUGUCAACGAGUGAUGUUCGUGGACAUUAGGCACAACUCGUAAAGAAGGUUUCCAGACUC [theeternabot_sameState_KL_FMN_B_39]	93	87.5	95	97.5	95.7
UAGUAUAAUCUGUCGUUUACAAUAUUUAGUCAGGAUAUCGUAUAUUCGAGAAGGGACACUAUCUAGUGAUGUUAGAUAUUUCUUU [JR_ExcFMNA_Sub013]	46.8	78.2	54.9	71.4	52.8
UAGUCAUACAGAGGAUAUCGUAUGAGUGAUGUUCAUACGACAUAAUCGAGUUGUAUCGAUGUUCGACGAGAAGGCUGUAUGACUA [FMN B Ex t1b]	210	89.6	118	106	111
UAUAGACAAGUGAUGUUUGUCAUAUCCGAAGGAGCGUCUUCUAAGACAGGUAGGUCGCGGAUUAAUUUUGUUAUGAUACUAUUUA [JR_SSArginiA_Sub016]	122	120	126	133	104
UAUAUACAUUUAUUAAUUAAAGGUUCAGAAGGAGCGUGAAUUAACACAGGUAGGUCGCUGAGCGAGUGAUGUUCGCUAUAUGGAA [JR_ExcArginiA_Sub006]	54.1	69.3	57	81	50.4
UAUAUAGUGACGGCCGCCACUAUAUUAAUGUUUUUGUUAGAGUGAUGUUUUGAUUAAUAUUUUUAUAGGACCGGGUUAUAUGUUA [xzzxmullin]	657	403	634	628	558
UAUAUAGUGACGGCCGCCACUAUAUUAAUGUUUUUGUUAGAGUGAUGUUUUGUUUAAUAUUUUUAUAGGACCGGGUUAUAUGUUA [zsqqxmullin]	569	338	641	557	580
UAUCUUUACUGAAGGAGCGAGCAUUUUGGAGUGAUGUUCCGAGCGAGUGAUGUUCGCAUAGCUCAGGUAGGUCGCAGUGGGAAAA [Same State Arginie B GF 15]	152	149	143	162	138
UAUUCUUAUCUUAGUUGAUUUCUAAUUAAACGAGGACCGGUACGGCCGCCACUCGGUUAUGAGUGAUGUUCAUGGAAUUACAUAA [JR_SSTryptoA_Sub020]	275	481	413	548	143
UCACGAGUGAUGUUCGUCGCAAUCACCGAAGGAGCGGGCGAAAGCCCAGGUAGGUCGCGGUAGAAUAAUGAUUUUAUUCGAUUGC [Same State Arginine A GF 26]	786	602	756	613	568
UCCUGCAAUCGCCCACGAAAGUGGAUCGAUACCAGAGUCGAAAGACUCCCUUGGCAGCGAGUGAUGUUCGAAGCAGGUAAAUAAA	771	612	765	605	637
UCCUGCAAUCUGCCACGAAAGUGGGUUGAUACCAGAGUCGAAAGACUCCCUUGGCAGCGAGUGAUGUUCGUUGCAGGUGAAUAAA [MatMod 9 - Jieux - Exclusion - Theophylline A]	118	264	444	309	323

Sequence	apparent KD of K4 kissing-loop reporter (input ligand: FMN 200 uM) [nM]	apparent KD of K4 kissing-loop reporter (input ligand: arginine 13.2 mM) [nM]	apparent KD of K4 kissing-loop reporter (input ligand: none) [nM]	apparent KD of K4 kissing-loop reporter [1] [nM]	apparent KD of K4 kissing-loop reporter [2] [nM]
UCGAAAUGCGACUCCUAGUUACACCGGGAAGGAGCGUGGAUAACCGCAGGUAGGUCGCCCGGAAGCCGGACCAGUGAUGUUGGUC [Exclusion Arginine A Gf 28]	207	177	203	274	155
UCGAAAUGCGUCUCCUAGUUACUCCGGGAAGGAGCGUGGAUAACCGCAGGUAGGUCGCCCGGAAGCCGGACCAGUGAUGUUGGUC [Exclusion Arginine A Gf 29]	216	179	221	186	182
UCGAACGAUGGAAGGAGCGCUCGUCAGUCCUGCGAGUGAUGUUCGUGGGUAAAUAGUCGCGAGCAGGUAGGUCGCCAUCUUGGGC [Reriat]	153	132	151	136	134
UCGAGUUGACGAAAAGUCAACUCGUGAGAUACCAGUGACGAAAGUCACCCUUGGCAGCUCACUGCCAGUGAUGUUGGUGUAUAGA [#06 K4 Theophylline A Same State]	856	840	1030	996	955
UCGGCGUACGGGCGGGUAGUGAUGUUGCUCCGAGGACCGGUACGGCCGCCACUCGAGGUACCAGUUCAUAGAACCUGGCACAUCA [theeternabot_exclusion_KL_Trp_A_23]	409	296	541	261	266
UCGGUAUAGUGAUGUUAUAUAGAGAGUGAUACCAGUUUAGAGAGAAACCCUUGGCAGCAUAGAAGAGUAUCAUUGGAGGAGGAGG [#20 K4 Theophylline A Exclusion]	455	417	387	336	301
UCUAACAAAUCGGCCGCCACUGAAAUAACCCAGGAGUGAUGUUCCAUCGUCCUAGACUACUCUUCCAGGACCGGGAUCUGUGUUC [theeternabot_exclusion_KL_Trp_B_25]	298	348	529	472	284
UCUAGUUCUACGGCCGCCACUAUCGAGCACGGGUAUUAGUGAUGUUGAGGUCGUGUCUCCCUCCCUAGGACCGGGUAGAUCUUAG [theeternabot_sameState_KL_Trp_B_4]	890	482	667	629	557
UCUCGGGCCAGUGAUGUUGGCGGCUAGUGGCGAGGACCGGUACGGCCGCCACUCGGCGCAGCAGCGGAGUGAUGUUUCGUGAGUA [Same State Tryptophan A GF 17]	363	301	377	441	198
UCUGGAGCAUAUGAUACCAGCAGUGAGAGACAGGAAGUAUAGUGAUGUUAUAUGAGAGAAUGCCCUUGGCAGCGUGUGCAGUGGG [SSTheophylB.O]	119	157	108	119	75.2
UCUGGUAUAUCUGAUACCAGAGUAUAGUAUCAAUUGCAUAUGGAGUGAUGUUCCAUACAACUCCCUUGGCAGCAGAUCUAUCUCU [Same State Theophylline B GF 24]	219	249	246	286	195
UCUGUACCGGGAAGGAGCGUGAAUGAGAAUGGAUAUAGUGAUGUUAUGUAUACGAACGAAUCGCAGGUAGGUCGCCCGGAUCCCU [SSArgB.aA]	674	380	653	474	467
UCUUGAGUAUAUGAUACCAGCAGUGAGAGACAGGAAGUAUAGUGAUGUUAUAUGAGAGAAUGCCCUUGGCAGCGUGUGCGGUGGG [SSTheophylB.S]	103	144	112	187	94.7
UGACUGGACUGAAGGAGCGCGAAACUCCUAGUGAUGUUAGGAUAACGAGACAAAGUCUCGACGCAGGUAGGUCGCAGUCUAGUCU	130	92.6	116	119	120
UGACUGGAUGGAAGGAGCGCUAAACUCCUAGUGAUGUUAGGGACACGAGGCAAAGCCUCGAAGCAGGUAGGUCGCCAUCUAGUCU [FiskerMod 22 - Jieux - Same State - Arginine B]	184	148	174	182	167
UGAUAAAGCAGUGAUGUUGCAAGUAAUGAUACCAGUUAAGAAGAGAACCCUUGGCAGCAUAAAGUGCGCUCUGAUGAGUGUGCUU [whbob_SS_Theo_A_w52]	96.7	130	111	152	95.6
UGAUACCAGACGGCCGCCACUAGAGCUAGCAAAGCUAGCAAGUGAUGUUUGAGGAGUGAUGUUCCUAGGACCGGGUCUGGUAUCU [TrypBX 2 #Palindromic #SwitchBubble #StaticStem]	103	85.5	96.2	86.8	39.9
UGAUACCAGACGGCCGCCACUCCUGCAAGUCAAAGACUUGCUAAAAGGAUCGUCCAGUGAUGUUGGAGGACCGGGUCUGGUAUCU [TrypBX 19 #SwitchBubble #Palindromic #StaticStem]	795	621	744	638	486
UGAUACCAGACGGCCGCCACUGGGACCGGGAGUGAUGUUCCAAAUAAAAGAAGCUCGGCCGCCACUAGGACCGGGUCUGGUAUCU [TrypBX 21 #DoubleAptamer #SwitchBubble]	395	261	339	367	182
UGAUACCAGACGGCCGCCACUGGUGCAUGUCAAAGACAUGCUAACCAAAUCGUGGAGUGAUGUUCCAGGACCGGGUCUGGUAUCU [TrypBX 22 #SwitchBubble #Palindromic #StaticStem]	235	207	217	239	570
UGAUACCAGACUGAUACCAGCCAGUGAUGUUGGCUAAAACCAAAAGCUGGCAAAGCCAGCGGCCCUUGGCAGCAGUCUGGUAUCU [TheoBX 1 #SwitchBubble #StaticStem]	816	694	806	1010	667
